For orientation: EC50 means the midpoint of the concentration-response curve. A lower EC50 goes with a more potent agent.

For assay [1], the target named is Pseudomonas aeruginosa PhuR, natively expressed (purified from E. coli outer membranes, heme-bound) (Pseudomonas aeruginosa PAO1, UniProt Q9HV88). Put plainly: ELISA. Background: In an ELISA, binding on a coated surface is turned into a signal by an enzyme label.
For assay [2], the target named is Pseudomonas aeruginosa PhuR refolded from inclusion bodies (Pseudomonas aeruginosa PAO1, UniProt Q9HV88). As to the kind of experiment: SEC. (In gel filtration, larger molecules generally elute earlier.)

B1: synthetic antibody sAB11 (Fab, V domains shown)
VH: EVQLVESGGGLVQPGGSLRLSCAASGFNFYYYSIHWVRQAPGKGLEWVASISPYYGSTYYADSVKGRFTISADTSKNTAYLQMNSLRAEDTAVYYCARSMNWYYSSPYGMSQGMDYWGQGTLVTVSS
VL: DIQMTQSPSSLSASVGDRVTITCRASQSVSSAVAWYQQKPGKAPKLLIYSASSLYSGVPSRFSGSRSGTDFTLTISSLQPEDFATYYCQQGSSSPLTFGQGTKVEIK
Regarding B1, in assay [1], the EC50 is ~9 nM. Also, the binding result in assay [2] is “binds”.

These data come from article PMC10418163 (bioRxiv, 2024).
